# Data as given in IntAct's records for PubMed 19559006.
# B1: Kinesin-like protein KIF21A (Homo sapiens), Q7Z4S6 (parent)
# chain: MLGAPDESSVRVAVRIRPQLAKEKIEGCHICTSVTPGEPQVFLGKDKAFTFDYVFDIDSQQEQIYIQCIEKLIEGCFEGYNATVFAYGQTGAGKTYTMGTGFDVNIVEEELGIISRAVKHLFKSIEEKKHIAIKNGLPAPDFKVNAQFLELYNEEVLDLFDTTRDIDAKSKKSNIRIHEDSTGGIYTVGVTTRTVNTESEMMQCLKLGALSRTTASTQMNVQSSRSHAIFTIHVCQTRVCPQIDADNATDNKIISESAQMNEFETLTAKFHFVDLAGSERLKRTGATGERAKEGISINCGLLALGNVISALGDKSKRATHVPYRDSKLTRLLQDSLGGNSQTIMIACVSPSDRDFMETLNTLKYANRARNIKNKVMVNQDRASQQINALRSEITRLQMELMEYKTGKRIIDEEGVESINDMFHENAMLQTENNNLRVRIKAMQETVDALRSRITQLVSDQANHVLARAGEGNEEISNMIHSYIKEIEDLRAKLLESEAVNENLRKNLTRATARAPYFSGSSTFSPTILSSDKETIEIIDLAKKDLEKLKRKEKRKKKRLQKLEESNREERSVAGKEDNTDTDQEKKEEKGVSERENNELEVEESQEVSDHEDEEEEEEEEEDDIDGGESSDESDSESDEKANYQADLANITCEIAIKQKLIDELENSQKRLQTLKKQYEEKLMMLQHKIRDTQLERDQVLQNLGSVESYSEEKAKKVRSEYEKKLQAMNKELQRLQAAQKEHARLLKNQSQYEKQLKKLQQDVMEMKKTKVRLMKQMKEEQEKARLTESRRNREIAQLKKDQRKRDHQLRLLEAQKRNQEVVLRRKTEEVTALRRQVRPMSDKVAGKVTRKLSSSDAPAQDTGSSAAAVETDASRTGAQQKMRIPVARVQALPTPATNGNRKKYQRKGLTGRVFISKTARMKWQLLERRVTDIIMQKMTISNMEADMNRLLKQREELTKRREKLSKRREKIVKENGEGDKNVANINEEMESLTANIDYINDSISDCQANIMQMEEAKEEGETLDVTAVINACTLTEARYLLDHFLSMGINKGLQAAQKEAQIKVLEGRLKQTEITSATQNQLLFHMLKEKAELNPELDALLGHALQDLDSVPLENVEDSTDEDAPLNSPGSEGSTLSSDLMKLCGEVKPKNKARRRTTTQMELLYADSSELASDTSTGDASLPGPLTPVAEGQEIGMNTETSGTSAREKELSPPPGLPSKIGSISRQSSLSEKKIPEPSPVTRRKAYEKAEKSKAKEQKHSDSGTSEASLSPPSSPPSRPRNELNVFNRLTVSQGNTSVQQDKSDESDSSLSEVHRSSRRGIINPFPASKGIRAFPLQCIHIAEGHTKAVLCVDSTDDLLFTGSKDRTCKVWNLVTGQEIMSLGGHPNNVVSVKYCNYTSLVFTVSTSYIKVWDIRDSAKCIRTLTSSGQVTLGDACSASTSRTVAIPSGENQINQIALNPTGTFLYAASGNAVRMWDLKRFQSTGKLTGHLGPVMCLTVDQISSGQDLIITGSKDHYIKMFDVTEGALGTVSPTHNFEPPHYDGIEALTIQGDNLFSGSRDNGIKKWDLTQKDLLQQVPNAHKDWVCALGVVPDHPVLLSGCRGGILKVWNMDTFMPVGEMKGHDSPINAICVNSTHIFTAADDRTVRIWKARNLQDGQISDTGDLGEDIASN
# partner: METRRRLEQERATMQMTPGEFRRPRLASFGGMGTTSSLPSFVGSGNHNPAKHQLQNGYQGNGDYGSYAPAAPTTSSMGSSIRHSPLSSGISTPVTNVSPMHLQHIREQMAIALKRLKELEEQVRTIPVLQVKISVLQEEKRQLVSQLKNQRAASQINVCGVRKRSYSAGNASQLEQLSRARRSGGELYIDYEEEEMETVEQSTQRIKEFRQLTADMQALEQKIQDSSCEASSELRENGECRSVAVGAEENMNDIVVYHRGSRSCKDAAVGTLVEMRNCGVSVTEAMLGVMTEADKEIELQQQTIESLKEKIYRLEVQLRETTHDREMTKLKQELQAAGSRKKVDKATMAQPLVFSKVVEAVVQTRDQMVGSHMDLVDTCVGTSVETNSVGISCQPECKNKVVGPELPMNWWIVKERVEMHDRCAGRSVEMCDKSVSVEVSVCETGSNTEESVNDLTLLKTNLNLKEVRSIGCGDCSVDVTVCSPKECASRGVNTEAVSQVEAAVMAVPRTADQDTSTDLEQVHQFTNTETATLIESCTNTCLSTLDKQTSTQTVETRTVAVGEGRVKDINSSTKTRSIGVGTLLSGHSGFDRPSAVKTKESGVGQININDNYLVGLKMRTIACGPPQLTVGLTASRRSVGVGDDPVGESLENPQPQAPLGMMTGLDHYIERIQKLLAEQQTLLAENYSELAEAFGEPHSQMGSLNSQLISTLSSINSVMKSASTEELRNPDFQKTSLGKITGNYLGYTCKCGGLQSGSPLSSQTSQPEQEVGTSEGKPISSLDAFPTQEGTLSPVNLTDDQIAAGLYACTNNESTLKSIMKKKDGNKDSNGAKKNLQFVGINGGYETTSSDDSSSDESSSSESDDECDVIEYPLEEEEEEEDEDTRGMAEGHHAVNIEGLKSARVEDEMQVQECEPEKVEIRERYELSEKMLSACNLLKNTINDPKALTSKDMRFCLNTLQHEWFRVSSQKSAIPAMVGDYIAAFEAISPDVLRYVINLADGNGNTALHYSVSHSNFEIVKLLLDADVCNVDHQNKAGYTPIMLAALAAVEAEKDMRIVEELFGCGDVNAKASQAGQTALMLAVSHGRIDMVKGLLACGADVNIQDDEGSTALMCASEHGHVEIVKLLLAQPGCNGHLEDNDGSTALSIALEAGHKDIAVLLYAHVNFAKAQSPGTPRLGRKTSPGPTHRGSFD
# Variants of: B1
# Conditions: with KANK1, Q14678-2
row,Variant,effect of a mutation on the interaction
1,R954W,increasing interaction
2,M947T,increasing interaction
